The target of assay [1] is xenavidin, acetylated in vitro (Xenopus tropicalis). As to the kind of experiment: SDS-PAGE thermostability assay; acetylated protein saturated with biotin, thermal treatment for 20 min in the presence of SDS and 2-mercaptoethanol, SDS-PAGE with Coomassie staining.
The target in assay [2] is xenavidin (Xenopus tropicalis). As to the kind of experiment: crystal structure; sitting-drop vapour diffusion at 22°C, with and without D-biotin; space group R32, dimer in the asymmetric unit; 1.7 Å.
Assay [3] has as its target xenavidin (Xenopus tropicalis). Description: SEC; Superdex 200 10/300 GL, 50 mM sodium phosphate pH 7.0, 650 mM NaCl; samples with and without an excess of biotin. A general note: SEC sorts molecules by how far they enter the pores of the column.

One may read the stoichiometry N as a count of units in the complex or per binding partner. Turning to “xenavidin, acetylated in vitro (natural protein)”, the stoichiometry N in assay [1] came out at 4.
xenavidin (natural protein): the stoichiometry N in assay [2] and in assay [3] was 4 each time.

(Values after PMC2761383, “Structural and functional characteristics of xenavidin, the first frog avidin from Xenopus tropicalis” (BMC Structural Biology, 2009).)
